Where two headings read alike, the source gives them in different places.
Columns and labels:
[1] = Ex vivo biodistribution in healthy BALB/c mice; parameters: species or system mouse; conditions: mouse, iv; for tissue uptake dose at 1 h / tissue uptake dose at 24 h / tissue uptake dose at 72 h / SUV at 1 h / SUV at 4 h / SUV at 24 h / SUV at 72 h / tissue uptake dose at 4 h: total radioactivity
Method: Quantification of activity was performed with an automated gamma counter equipped with a 3-in NaI(Tl) detector coupled to a multichannel analyzer (2480 Wizard^2, Perkin Elmer, Zaventem, Belgium). The results were corrected for background signal, physical decay during counting and detector dead time.
All animal experiments were performed in compliance with the Ethical Committee Animal Studies of Medanex Clinic (EC MxCl 2020-163 and EC MxCl 2021-173), the Belgian laboratory animal legislation and the European Communities Council Directive of 22 September 2010 (2010/63/EU). Male BALB/c and NMRI nude mice were purchased from Janvier (Bio Services, Uden, The Netherlands) and housed in ventilated cages under standard laboratory conditions (12 h light/dark cycle) at the animal facility of SCK CEN. All animals had access to food and water ad libitum.
Additionally, similar biodistribution studies were performed with free (unlabeled) [^153Sm]SmCl3 to identify the organs with ^153Sm accumulation in case of release from the complex. […] The mice were sacrificed by an overdose pentobarbital (200 µL of 60 mg/mL) 1, 4, 24 and 72 h post-injection (p.i.) (n = 3–4 per time point). Blood was collected via cardiac puncture. Organs of interest were collected in tared tubes and weighed. The activity in the different organs was measured in the gamma counter. For the calculation of the total activity in the blood, bone and muscle, the masses were assumed to be, respectively, 7, 12 and 40% of the total body mass. Data were expressed as a percentage of injected activity (%IA) and standardized uptake value (SUV). %IA was calculated as (counts per min (cpm) in organ)/(IA converted to cpm) × 100. SUV was calculated as (activity in cpm in organ/weight of organ in g)/(IA/total body weight in g).

[2] = Shelf life in radiolabeling buffer at room temperature (iTLC); format: physicochemical; conditions: radiolabeling buffer (0.15 M NaOAc, pH 4.7), up to 7 days, iTLC-SG, gamma counter
Method: Radiolabeling was performed by adding up to 200 MBq of the ^153Sm radiolabeling solution to 20 nmol of the DOTA-TATE precursor dissolved in 0.15 M NaOAc buffer (pH 4.7) in a total reaction volume of 1 mL. The reaction vial was placed in a Thermomixer C (Eppendorf) to stir (500 rpm) and the mixture was heated to 95 °C for 15 min. After incubation, the radiolabeling yield was evaluated using thin-layer chromatography. An amount of 1–2 µL of the reaction mixture was spotted on a glass microfiber chromatography paper strip impregnated with silica gel (iTLC-SG, Agilent Technologies, Diegem, Belgium) that was eluted with a 0.5 M citrate solution (pH 5.5). After elution, the TLC papers were cut in half and the activity of the bottom and top part of the TLC paper was counted for 2 min each using an automated gamma counter.
After 1 h, 3 days, 5 days and 7 days, a 5 µL sample was spotted on the TLC system described above to identify the intact fraction.

[3] = target: T1, SSTR2 receptors (Rattus norvegicus, UniProt P30680); test: Cell binding assay (membrane association and internalization); format: cell-based; conditions: for decrease of binding by co-incubation with unlabeled DOTA-TATE: 1 h
T1 construct: CA20948 cells are derived from rat pancreas and express SSTR2 endogenously; endogenous in cells; host or cells: CA20948 rat pancreatic cancer cells
T1 sequence (P30680 whole entry): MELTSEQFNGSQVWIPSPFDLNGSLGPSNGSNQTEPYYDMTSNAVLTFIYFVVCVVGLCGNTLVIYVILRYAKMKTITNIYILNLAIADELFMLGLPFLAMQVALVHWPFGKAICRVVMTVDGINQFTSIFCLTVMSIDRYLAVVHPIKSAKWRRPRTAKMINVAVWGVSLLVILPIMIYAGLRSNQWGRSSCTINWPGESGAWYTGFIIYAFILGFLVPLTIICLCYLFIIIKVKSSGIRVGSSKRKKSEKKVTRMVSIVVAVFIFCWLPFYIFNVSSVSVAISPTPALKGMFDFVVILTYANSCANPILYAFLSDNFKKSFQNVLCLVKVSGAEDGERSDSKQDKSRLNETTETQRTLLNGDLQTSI
Method: Rat pancreatic cancer cell line CA20948 was used given the somatostatin receptor 2 (SSTR2) overexpression as it is found in many human neuroendocrine tumors. Cells were grown in DMEM High Glucose and Pyruvate medium (Gibco 41966029) supplemented with 10% fetal bovine serum (Gibco 10270106) and 100 U/mL penicillin-streptomycin (Sigma-Aldrich P4333) and were maintained in a humidified incubator at 37 °C with 5% CO2 supply. All in vitro results were obtained from a minimum of three replicates per condition.
Hereafter, fractions were collected. First, the membrane-bound fraction was collected following 10 min incubation at room temperature in strip buffer (50 mM glycine, 100 mM NaCl, pH 2.8). Then, the internalized fraction was collected by 30 min of cell lysis (1 M NaOH) at room temperature. […] In addition, total cell number per well was obtained using a MOXI™ automated cell counter (VWR, Leuven, Belgium).

[4] = male, BALB/c, bone, read-out: Bone %IA
[5] = male, BALB/c, bone, read-out: Bone SUV
[6] = male, BALB/c, in vivo, read-out: Excreted %IA
[7] = male, BALB/c, intestines, read-out: Intestines %IA
[8] = male, BALB/c, kidneys, read-out: Kidneys SUV
[9] = male, BALB/c, liver, read-out: Liver SUV
[10] = male, BALB/c, muscle, read-out: Muscle %IA
[11] = male, BALB/c, pancreas, read-out: Pancreas %IA
[12] = male, BALB/c, spleen, read-out: Spleen %IA
[13] = male, BALB/c, spleen, read-out: Spleen SUV

`C[C@@H](O)[C@H](NC(=O)[C@@H]1CSSC[C@H](NC(=O)[C@@H](Cc2ccccc2)NC(=O)CN2CCN(CC(=O)O)CCN(CC(=O)O)CCN(CC(=O)O)CC2)C(=O)N[C@@H](Cc2ccc(O)cc2)C(=O)N[C@H](Cc2c[nH]c3ccccc23)C(=O)N[C@@H](CCCCN)C(=O)N[C@@H]([C@@H](C)O)C(=O)N1)C(=O)O` [[^153Sm]Sm-DOTA-TATE, metal not drawn] showed a tissue uptake dose at 1 h ([1]; male, BALB/c, blood, read-out: Blood %IA) of 0.7 ± 0.3 %ID, a tissue uptake dose at 1 h [1, 4] of 0.8 ± 0.4 %ID and a tissue uptake dose at 24 h [1, 4] of 0.7 ± 0.1 %ID. The tissue uptake dose at 72 h [1, 4] was 0.6 ± 0.1 %ID, the SUV at 1 h [1, 5] was 0.1 SUV and the SUV at 4 h [1, 5] was 0.1 SUV. It also gave an SUV at 24 h [1, 5] of 0.1 SUV, an SUV at 72 h [1, 5] of 0.1 SUV and an SUV at 1 h ([1]; male, BALB/c, heart, read-out: Heart SUV) of 0.1 SUV. The tissue uptake dose at 1 h [1, 6] was 82 ± 4.8 %ID, the tissue uptake dose at 4 h [1, 6] was 90.2 ± 0.7 %ID and the tissue uptake dose at 24 h [1, 6] was 96.6 ± 0.4 %ID. The tissue uptake dose at 1 h [1, 7] was 0.6 ± 0.1 %ID, the tissue uptake dose at 4 h [1, 7] was 0.5 %ID and the tissue uptake dose at 72 h [1, 7] was 0.1 %ID. It also gave a tissue uptake dose at 4 h ([1]; male, BALB/c, kidneys, read-out: Kidneys %IA) of 3.2 ± 0.1 %ID, an SUV at 24 h [1, 8] of 0.4 ± 0.1 SUV and an SUV at 72 h [1, 8] of 0.1 SUV. It also gave a tissue uptake dose at 4 h ([1]; male, BALB/c, liver, read-out: Liver %IA) of 2.5 ± 0.8 %ID, an SUV at 1 h [1, 9] of 0.4 ± 0.1 SUV and an SUV at 24 h [1, 9] of 0.3 SUV. For the same compound, the tissue uptake dose at 1 h ([1]; male, BALB/c, lungs, read-out: Lungs %IA) was 0.1 %ID, the SUV at 4 h ([1]; male, BALB/c, lungs, read-out: Lungs SUV) was 0.1 SUV and the tissue uptake dose at 4 h [1, 10] was 1.1 ± 0.5 %ID. It also gave a tissue uptake dose at 24 h [1, 10] of 0.1 %ID, a tissue uptake dose at 72 h [1, 10] of 0.1 %ID and an SUV at 1 h ([1]; male, BALB/c, muscle, read-out: Muscle SUV) of 0.6 ± 0.3 SUV. It also gave a tissue uptake dose at 1 h [1, 11] of 0.1 %ID, a tissue uptake dose at 4 h [1, 11] of 0.1 %ID and an SUV at 4 h ([1]; male, BALB/c, pancreas, read-out: Pancreas SUV) of 0.1 SUV. For the same compound, the tissue uptake dose at 1 h [1, 12] was 0.3 ± 0.1 %ID, the tissue uptake dose at 4 h [1, 12] was 0.3 %ID and the tissue uptake dose at 24 h [1, 12] was 0.3 ± 0.1 %ID. For the same compound, the tissue uptake dose at 72 h [1, 12] was 0.1 %ID, the SUV at 24 h [1, 13] was 0.9 ± 0.3 SUV and the SUV at 72 h [1, 13] was 0.3 ± 0.1 SUV. It also gave a tissue uptake dose at 4 h ([1]; male, BALB/c, stomach, read-out: Stomach %IA) of 0.1 ± 0.1 %ID, an SUV at 1 h ([1]; male, BALB/c, whole blood, read-out: Blood SUV) of 0.1 SUV and a tissue uptake dose at 4 h ([1]; blood, 4 h p.i., healthy male BALB/c mice, ~2-3 MBq i.v., mean ± SD, n = 3-4, read-out: Blood %IA) of 0.2 %ID. For the same compound, the tissue uptake dose at 4 h ([1]; bone, 4 h p.i., healthy male BALB/c mice, ~2-3 MBq i.v., mean ± SD, n = 3-4, read-out: Bone %IA) was 0.6 ± 0.2 %ID, the “Blood %IA” value ([1]; in vivo) was 0.0 ± 0.0 %IA and the “Blood SUV” value ([1]; in vivo) was 0.0 ± 0.0. The “Brain %IA” value ([1]; in vivo) was 0.0 ± 0.0 %IA, the “Brain SUV” value ([1]; in vivo) was 0.0 ± 0.0 and the “Heart %IA” value ([1]; in vivo) was 0.0 ± 0.0 %IA. For the same compound, the “Heart SUV” value ([1]; in vivo) was 0.0 ± 0.0, the “Lungs %IA” value ([1]; in vivo) was 0.0 ± 0.0 %IA and the “Lungs SUV” value ([1]; in vivo) was 0.0 ± 0.0. The “Muscle SUV” value ([1]; in vivo) was 0.0 ± 0.0, the “Pancreas %IA” value ([1]; in vivo) was 0.0 ± 0.0 %IA and the “Pancreas SUV” value ([1]; in vivo) was 0.0 ± 0.0. The “Stomach %IA” value ([1]; in vivo) was 0.0 ± 0.0 %IA, the tissue uptake dose at 72 h ([1]; in vivo, 72 h p.i., healthy male BALB/c mice, ~2-3 MBq i.v., mean ± SD, n = 3-4, read-out: Excreted %IA) was 97.8 ± 0.2 %ID and the tissue uptake dose at 24 h ([1]; intestines, 24 h p.i., healthy male BALB/c mice, ~2-3 MBq i.v., mean ± SD, n = 3-4, read-out: Intestines %IA) was 0.2 %ID. For the same compound, the tissue uptake dose at 24 h ([1]; kidneys, 24 h p.i., healthy male BALB/c mice, ~2-3 MBq i.v., mean ± SD, n = 3-4, read-out: Kidneys %IA) was 0.7 ± 0.2 %ID, the tissue uptake dose at 72 h ([1]; kidneys, 72 h p.i., healthy male BALB/c mice, ~2-3 MBq i.v., mean ± SD, n = 3-4, read-out: Kidneys %IA) was 0.2 %ID and the SUV at 4 h ([1]; liver, 4 h p.i., healthy male BALB/c mice, ~2-3 MBq i.v., mean ± SD, n = 3-4, read-out: Liver SUV) was 0.5 ± 0.2 SUV. For the same compound, the tissue uptake dose at 24 h ([1]; liver, 24 h p.i., healthy male BALB/c mice, ~2-3 MBq i.v., mean ± SD, n = 3-4, read-out: Liver %IA) was 1.6 ± 0.2 %ID, the tissue uptake dose at 72 h ([1]; liver, 72 h p.i., healthy male BALB/c mice, ~2-3 MBq i.v., mean ± SD, n = 3-4, read-out: Liver %IA) was 1.2 ± 0.2 %ID and the SUV at 72 h ([1]; liver, 72 h p.i., healthy male BALB/c mice, ~2-3 MBq i.v., mean ± SD, n = 3-4, read-out: Liver SUV) was 0.2 SUV. The SUV at 1 h ([1]; lungs, 1 h p.i., healthy male BALB/c mice, ~2-3 MBq i.v., mean ± SD, n = 3-4, read-out: Lungs SUV) was 0.2 SUV, the SUV at 4 h ([1]; muscle, 4 h p.i., healthy male BALB/c mice, ~2-3 MBq i.v., mean ± SD, n = 3-4, read-out: Muscle SUV) was 0.2 ± 0.1 SUV and the SUV at 1 h ([1]; pancreas, 1 h p.i., healthy male BALB/c mice, ~2-3 MBq i.v., mean ± SD, n = 3-4, read-out: Pancreas SUV) was 0.2 SUV. The SUV at 1 h ([1]; spleen, 1 h p.i., healthy male BALB/c mice, ~2-3 MBq i.v., mean ± SD, n = 3-4, read-out: Spleen SUV) was 0.8 ± 0.2 SUV, the SUV at 4 h ([1]; spleen, 4 h p.i., healthy male BALB/c mice, ~2-3 MBq i.v., mean ± SD, n = 3-4, read-out: Spleen SUV) was 0.8 ± 0.2 SUV and the tissue uptake dose at 1 h ([1]; stomach, 1 h p.i., healthy male BALB/c mice, ~2-3 MBq i.v., mean ± SD, n = 3-4, read-out: Stomach %IA) was 0.2 %ID. The “radiochemical purity (intact fraction)” value [2] was over 98%, the “internalized fraction of cell-associated activity” value ([3]; 2.5 nM (2.7 kBq), 1 h incubation, mean ± SD) was 79 ± 2% and the “decrease of binding by co-incubation with unlabeled DOTA-TATE” value ([3]; 4-fold molar excess of unlabeled DOTA-TATE) was “about 40%”. For the same compound, the “decrease of binding by co-incubation with unlabeled DOTA-TATE” value ([3]; 4000-fold molar excess of unlabeled DOTA-TATE) was about 92%.
